This passage reports melting temperature results from the supplement of paper PMC5998384.

This data set has as its system HeLa Kyoto. The data set is described as follows: melting temperature (median over replicates), in situ; higher = more thermally stable.
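Note: HeLa Kyoto cells synchronized by double thymidine or nocodazole block, proteins quantified by TMT10plex mass spectrometry, three independent biological replicates.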

In the case of “MATETVELHKLKLAELKQECLARGLETKGIKQDLIHRLQAYLEEHAEEEANEEDVLGDETEEEETKPIELPVKEEEPPEKTVDVAAEKKVVKITSEIPQTERMQKRAERFNVPVSLESKKAARAARFGISSVPTKGLSSDNKPMVNLDKLKERAQRFGLNVSSISRKSEDDEKLKKRKERFGIVTSSAGTGTTEDTEAKKRKRAERFGIA [SARNP]”, the melting temperature by setting is: (cell cycle stage: G1/S) 57.9 °C; (cell cycle stage: mitosis) 54.3 °C.
In the same order, the values of “MQSREDAPRSRRLASPRGGKRPKKIHKPTVSAFFTGPEELKDTAHSAALLAQLKSFYDARLLCDVTIEVVTPGSGPGTGRLFPCNRNVLAAACPYFKSMFTGGMYESQQASVTMHDVDAESFEVLVDYCYTGRVSLSEANVERLYAASDMLQLEYVREACASFLARRLDLTNCTAILKFADAFGHRKLRSQAQSYIAQNFKQLSHMGSIREETLADLTLAQLLAVLRLDSLDVESEQTVCHVAVQWLEAAPKERGPSAAEVFKCVRWMHFTEEDQDYLEGLLTKPIVKKYCLDVIEGALQMRYGDLLYKSLVPVPNSSSSSSSSNSLVSAAENPPQRLGMCAKEMVIFFGHPRDPFLCCDPYSGDLYKVPSPLTCLAHTRTVTTLAVCISPDHDIYLAAQPRTDLWVYKPAQNSWQQLADRLLCREGMDVAYLNGYIYILGGRDPITGVKLKEVECYNVKRNQWALVAPLPHSFLSFDLMVIRDYLYALNSKRMFCYDPSHNMWLKCVSLKRNDFQEACVFNEEIYCICDIPVMKVYNPVRAEWRQMNNIPLVSETNNYRIIKHGQKLLLITSRTPQWKKNRVTVYEYDIRGDQWINIGTTLGLLQFDSNFFCLSARVYPSCLEPGQSFLTEEEEIPSESSTEWDLGGFSEPDSESGSSSSLSDDDFWVRVAPQ [KBTBD6]” are 50.6 °C and 51.1 °C.
“MARRRRRACIALFLVLLFAFGTLMGLRTLKAPDGLPALGPGLELAPFERRPEGAPAPAARAPAAPAAPPPPPPPPRTADPGGSPGPAPAEAEPAPVQSLRVYSDLHAFYYSWYGSPRREGHYIHWDHVMVPHWDPKISASYPRGRHSPPDDLGSSFYPELGPYSSRDPEVLREHMTQLKEAAIGVLVLSWYPPGMADDNGEPSDDLVPAILDTAHQYSIQVAFHIQPYKGRDDITVHDNIKYIIDTYGSHGAFYRYKNSMGKSLPLFYIYDSYLTSPEAWAHLLTPNGPHSIRNTPYDGVFIALLVEEGHTHDILAAGFDGMYTYFASNGFSFGSSHQNWKAVKNFCDANNLMFIPSVGPGYIDTSIRPWNNHNTRNRVNGKYYETALQAALTVRPEIVSITSFNEWHEGTQIEKAIPKKTPTRLYLDYLPHQPSLYLELTRRWAEHFIKEKEQWLM [MANEAL]” had a melting temperature (cell cycle stage: mitosis) of 54.1 °C.
With “MSKAHPPELKKFTDKKFSLKLNGGRHVQGILRGFDPFMNLVIDECVEMATSGQQKNIGMVEIRGNSIIMLEALERV [SNRPGP15]”, the melting temperature is, setting by setting: (cell cycle stage: G1/S) 53.6 °C; (cell cycle stage: mitosis) 54 °C.
In the same order, the values of “MGEFKVHRVRFFNYVPSGIRCVAYNNQSNRLAVSRTDGTVEIYNLSANYFQEKFFPGHESRATEALCWAEGQRLFSAGLNGEIMEYDLQALNIKYAMDAFGGPIWSMAASPSGSQLLVGCEDGSVKLFQITPDKIQFERNFDRQKSRILSLSWHPSGTHIAAGSIDYISVFDVKSGSAVHKMIVDRQYMGVSKRKCIVWGVAFLSDGTIISVDSAGKVQFWDSATGTLVKSHLIANADVQSIAVADQEDSFVVGTAEGTVFHFQLVPVTSNSSEKQWVRTKPFQHHTHDVRTVAHSPTALISGGTDTHLVFRPLMEKVEVKNYDAALRKITFPHRCLISCSKKRQLLLFQFAHHLELWRLGSTVATGKNGDTLPLSKNADHLLHLKTKGPENIICSCISPCGSWIAYSTVSRFFLYRLNYEHDNISLKRVSKMPAFLRSALQILFSEDSTKLFVASNQGALHIVQLSGGSFKHLHAFQPQSGTVEAMCLLAVSPDGNWLAASGTSAGVHVYNVKQLKLHCTVPAYNFPVTAMAIAPNTNNLVIAHSDQQVFEYSIPDKQYTDWSRTVQKQGFHHLWLQRDTPITHISFHPKRPMHILLHDAYMFCIIDKSLPLPNDKTLLYNPFPPTNESDVIRRRTAHAFKISKIYKPLLFMDLLDERTLVAVERPLDDIIAQLPPPIKKKKFGT [UTP4]” are 54.3 °C and 52.3 °C.
With “MDEESLESALQTYRAQLQQVELALGAGLDSSEQADLRQLQGDLKELIELTEASLVSVRKSSLLAALDEERPGRQEDAEYQAFREAITEAVEAPAAARGSGSETVPKAEAGPESAAGGQEEEEGEDEEELSGTKVSAPYYSSWGTLEYHNAMVVGTEEAEDGSAGVRVLYLYPTHKSLKPCPFFLEGKCRFKENCRFSHGQVVSLDELRPFQDPDLSSLQAGSACLAKHQDGLWHAARITDVDNGYYTVKFDSLLLREAVVEGDGILPPLRTEATESDSDSDGTGDSSYARVVGSDAVDSAQSSALCPSLAVVGSDAVDSGTCSSAFAGWEVHTRGIGSRLLTKMGYEFGKGLGRHAEGRVEPIHAVVLPRGKSLDQCVETLQKQTRVGKAGTNKPPRCRGRGARPGGRPAPRNVFDFLNEKLQGQAPGALEAGAAPAGRRSKDMYHASKSAKRALSLRLFQTEEKIERTQRDIRSIQEALARNAGRHSVASAQLQEKLAGAQRQLGQLRAQEAGLQQEQRKADTHKKMTEF [ZGPAT]”, the melting temperature is 47.5 °C (cell cycle stage: G1/S) and 49.3 °C (cell cycle stage: mitosis).
Take “MLAGAGRPGLPQGRHLCWLLCAFTLKLCQAEAPVQEEKLSASTSNLPCWLVEEFVVAEECSPCSNFRAKTTPECGPTGYVEKITCSSSKRNEFKSCRSALMEQRLFWKFEGAVVCVALIFACLVIIRQRQLDRKALEKVRKQIESI [JTB]”: the melting temperature (cell cycle stage: mitosis) was determined as 53.4 °C.
The sequence “MPGPSPGLRRALLGLWAALGLGLFGLSAVSQEPFWADLQPRVAFVERGGSLWLNCSTNCPRPERGGLETSLRRNGTQRGLRWLARQLVDIREPETQPVCFFRCARRTLQARGLIRTFQRPDRVELMPLPPWQPVGENFTLSCRVPGAGPRASLTLTLLRGAQELIRRSFAGEPPRARGAVLTATVLARREDHGANFSCRAELDLRPHGLGLFENSSAPRELRTFSLSPDAPRLAAPRLLEVGSERPVSCTLDGLFPASEARVYLALGDQNLSPDVTLEGDAFVATATATASAEQEGARQLVCNVTLGGENRETRENVTIYSFPAPLLTLSEPSVSEGQMVTVTCAAGAQALVTLEGVPAAVPGQPAQLQLNATENDDRRSFFCDATLDVDGETLIKNRSAELRVLYAPRLDDSDCPRSWTWPEGPEQTLRCEARGNPEPSVHCARSDGGAVLALGLLGPVTRALSGTYRCKAANDQGEAVKDVTLTVEYAPALDSVGCPERITWLEGTEASLSCVAHGVPPPDVICVRSGELGAVIEGLLRVAREHAGTYRCEATNPRGSAAKNVAVTVEYGPRFEEPSCPSNWTWVEGSGRLFSCEVDGKPQPSVKCVGSGGATEGVLLPLAPPDPSPRAPRIPRVLAPGIYVCNATNRHGSVAKTVVVSAESPPEMDESTCPSHQTWLEGAEASALACAARGRPSPGVRCSREGIPWPEQQRVSREDAGTYHCVATNAHGTDSRTVTVGVEYRPVVAELAASPPGGVRPGGNFTLTCRAEAWPPAQISWRAPPGALNIGLSSNNSTLSVAGAMGSHGGEYECAATNAHGRHARRITVRVAGPWLWVAVGGAAGGAALLAAGAGLAFYVQSTACKKGEYNVQEAESSGEAVCLNGAGGGAGGAAGAEGGPEAAGGAAESPAEGEVFAIQLTSA [ICAM5]” returned a melting temperature (cell cycle stage: G1/S) of 54.5 °C.
“MLVTAYLAFVGLLASCLGLELSRCRAKPPGRACSNPSFLRFQLDFYQVYFLALAADWLQAPYLYKLYQHYYFLEGQIAILYVCGLASTVLFGLVASSLVDWLGRKNSCVLFSLTYSLCCLTKLSQDYFVLLVGRALGGLSTALLFSAFEAWYIHEHVERHDFPAEWIPATFARAAFWNHVLAVVAGVAAEAVASWIGLGPVAPFVAAIPLLALAGALALRNWGENYDRQRAFSRTCAGGLRCLLSDRRVLLLGTIQALFESVIFIFVFLWTPVLDPHGAPLGIIFSSFMAASLLGSSLYRIATSKRYHLQPMHLLSLAVLIVVFSLFMLTFSTSPGQESPVESFIAFLLIELACGLYFPSMSFLRRKVIPETEQAGVLNWFRVPLHSLACLGLLVLHDSDRKTGTRNMFSICSAVMVMALLAVVGLFTVVRHDAELRVPSPTEEPYAPEL [MFSD5]” displayed a melting temperature (cell cycle stage: mitosis) of 54.9 °C.
“MAEVPPGPSSLLPPPAPPAPAAVEPRCPFPAGAALACCSEDEEDDEEHEGGGSRSPAGGESATVAAKGHPCLRCPQPPQEQQQLNGLISPELRHLRAAASLKSKVLSVAEVAATTATPDGGPRATATKGAGVHSGERPPHSLSSNARTAVPSPVEAAAASDPAAARNGLAEGTEQEEEEEDEQVRLLSSSLTADCSLRSPSGREVEPGEDRTIRYVRYESELQMPDIMRLITKDLSEPYSIYTYRYFIHNWPQLCFLAMVGEECVGAIVCKLDMHKKMFRRGYIAMLAVDSKYRRNGIGTNLVKKAIYAMVEGDCDEVVLETEITNKSALKLYENLGFVRDKRLFRYYLNGVDALRLKLWLR [NAA30]” registered a melting temperature (cell cycle stage: G1/S) of 51.9 °C.
“MEPGTNSFRVEFPDFSSTILQKLNQQRQQGQLCDVSIVVQGHIFRAHKAVLAASSPYFCDQVLLKNSRRIVLPDVMNPRVFENILLSSYTGRLVMPAPEIVSYLTAASFLQMWHVVDKCTEVLEGNPTVLCQKLNHGSDHQSPSSSSYNGLVESFELGSGGHTDFPKAQELRDGENEEESTKDELSSQLTEHEYLPSNSSTEHDRLSTEMASQDGEEGASDSAEFHYTRPMYSKPSIMAHKRWIHVKPERLEQACEGMDVHATYDEHQVTESINTVQTEHTVQPSGVEEDFHIGEKKVEAEFDEQADESNYDEQVDFYGSSMEEFSGERSDGNLIGHRQEAALAAGYSENIEMVTGIKEEASHLGFSATDKLYPCQCGKSFTHKSQRDRHMSMHLGLRPYGCGVCGKKFKMKHHLVGHMKIHTGIKPYECNICAKRFMWRDSFHRHVTSCTKSYEAAKAEQNTTEAN [ZBTB43]” had a melting temperature (cell cycle stage: mitosis) of 55 °C.
For “MEMSGLSFSEMEGCRNLLGLLDNDEIMALCDTVTNRLVQPQDRQDAVHAILAYSQSAEELLRRRKVHREVIFKYLATQGIVIPPATEKHNLIQHAKDYWQKQPQLKLKETPEPVTKTEDIHLFQQQVKEDKKAEKVDFRRLGEEFCHWFFGLLNSQNPFLGPPQDEWGPQHFWHDVKLRFYYNTSEQNVMDYHGAEIVSLRLLSLVKEEFLFLSPNLDSHGLKCASSPHGLVMVGVAGTVHRGNTCLGIFEQIFGLIRCPFVENTWKIKFINLKIMGESSLAPGTLPKPSVKFEQSDLEAFYNVITVCGTNEVRHNVKQASDSGTGDQV [C3ORF38]”, the melting temperature by setting is: (cell cycle stage: G1/S) 50.4 °C; (cell cycle stage: mitosis) 50.9 °C.
Sequence “MAMEGYWRFLALLGSALLVGFLSVIFALVWVLHYREGLGWDGSALEFNWHPVLMVTGFVFIQGIAIIVYRLPWTWKCSKLLMKSIHAGLNAVAAILAIISVVAVFENHNVNNIANMYSLHSWVGLIAVICYLLQLLSGFSVFLLPWAPLSLRAFLMPIHVYSGIVIFGTVIATALMGLTEKLIFSLRDPAYSTFPPEGVFVNTLGLLILVFGALIFWIVTRPQWKRPKEPNSTILHPNGGTEQGARGSMPAYSGNNMDKSDSELNSEVAARKRNLALDEAGQRSTM [CYBRD1]” gave a melting temperature (cell cycle stage: mitosis) of 53.6 °C.
Turning to “MGAKQSGPAAANGRTRAYSGSDLPSSSSGGANGTAGGGGGARAAAAGRFPAQVPSAHQPSASGGAAAAAAAPAAPAAPRSRSLGGAVGSVASGARAAQSPFSIPNSSSGPYGSQDSVHSSPEDGGGGRDRPVGGSPGGPRLVIGSLPAHLSPHMFGGFKCPVCSKFVSSDEMDLHLVMCLTKPRITYNEDVLSKDAGECAICLEELQQGDTIARLPCLCIYHKGCIDEWFEVNRSCPEHPSD [ZNRF2]”, the melting temperature by setting is: (cell cycle stage: G1/S) 52.7 °C; (cell cycle stage: mitosis) 55.1 °C.
